Measured values: the supplement of paper PMC10567573

B1: SMG5 (parent)
chain: FVSIAQSEQESLLQQAQAQFRMAQ
B2: TRIM39 (parent)
chain: ERDFPCPVCRKTSRYRSLRPNRQL

Variants of: B1
Assay: protein stability index of a GFP-peptide fusion (GPS, HEK-293T) (PSI 1-6); higher = more stable
Conditions: c terminus: a fixed tail appended
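Also: lentivirally expressed fusions sorted by FACS into six bins by GFP to DsRed ratio, PSI derived from sequencing read proportions per bin multiplied by bin number.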

Protein stability index: each site, then its substitutions
A23: P 1.91; F 1.75; Y 2.16; T 2.33; V 2.02; L 2.4; K 2.12; M 2.17; W 2.58; Q 2.29; C 2.1; I 2.22; D 2.21; H 2.85; R 2.26; S 2.31; G 2.46; N 2.12; E 2.85
A18: Y 2.86; V 1.52; H 2.19; P 1.98; E 2.48; S 2.74; F 1.74; L 2.14; I 2.54; G 1.89; R 2.54; N 3.02; Q 2.04; D 2.37; C 1.98; T 2.3; W 1.94; K 2.79; M 1.7
R21: W 3.6; Y 2.63; L 2.43; T 2.32; K 2.59; H 2.4; E 2.64; S 1.82; D 2.48; I 1.76; G 2.08; M 1.89; Q 2.6; P 2.17; A 2.27; N 1.94; V 2.56; C 1.44; F 1.92
F20: C 2.22; D 3.06; P 2.75; L 2.08; A 2.44; N 2.5; R 2.32; K 2.59; M 2.29; V 2.37; Y 2.49; E 3.12; H 3.04; S 2.57; T 3.17; W 1.82; Q 2.5; I 2.48; G 3.13
Q17: M 2.13; R 3.07; W 1.39; L 2.04; P 3.35; Y 1.8; S 2.48; N 2.33; V 2.03; T 1.73
M22: K 2.13; R 2.7; D 2.68; Q 2.05; I 2.14; P 2.25; F 2.2; T 2.5; L 2.01; H 2.26; S 2.92; Y 2.13; G 2.3; A 2.43; W 2.4; C 3.04; E 2.57; N 1.94; V 2.61
Q24: S 2.65; V 1.63; I 2.11; A 2.15; W 2.76; L 2.4; P 2.38; F 2.48; M 1.88; H 1.92; T 2.08; C 1.94; K 2.65; D 2.12; R 2.57; E 2.74; Y 2.1; G 1.71; N 2.24
Q19: H 1.66; T 1.98; A 1.87; L 2.47; S 1.81; G 2.08; M 2.09; Y 1.08; D 2.27; E 2.82; R 3.17; I 2.33; N 1.97; F 1.35; K 1.96; C 1.93; P 1.81; V 2.13

Variants of: B2
Assay: as above
Conditions: c terminus: a fixed tail appended

Protein stability index: each site, then its substitutions
P20: L 1.75; D 2.06; Q 2.17; W 1.84; T 2.13; K 2.58; R 4.09; M 3.02; Y 1.84; N 1.77
R2: W 2.18; I 2.06; F 1.83; P 1.78; E 2.06; N 1.86; K 2.02; D 2.1; Y 2.22; Q 2.27; H 2.33
P5: S 2.04; D 2.49; N 1.84; I 2.91; V 2.29; L 3
R22: I 1.93; G 2.17; E 2.4; T 2.04; D 2.37; A 3.44; V 1.76; L 1.83; M 2.86
S17: D 1.85; L 1.69; Q 1.86; E 2.13; K 2.25; N 2.22
R16: C 2.47; L 1.53; N 2.23; E 2.54; I 1.24; Q 1.91
F4: Q 2.13; S 1.81; P 2.41; R 2.09; D 2.93; L 2.1; H 3.14; C 2.12; Y 2.84; T 1.82; V 2.39
Y15: M 1.54; N 2.31; G 1.83; K 3.33; W 1.95; F 2.31; D 3.02; I 2.24
C9: F 2.45; I 3.29; K 3.42; G 3.91; V 3.26; T 3.77; Q 3.81; P 2.92
D3: H 1.78; C 2.08; E 1.64; Y 1.42; W 2.15; Q 2.62; F 2.93; V 2.48; I 1.39; S 2.64
E1: W 2.4; S 2.25; P 2.93; G 1.83; A 2.16; H 2.03; V 2.06; F 2.14; M 2.16; D 2.4
N21: M 2.74; I 1.85; K 2.78; P 2.12; R 2.96; H 1.77; D 2.12; Q 1.62
R14: F 1.96; A 2.46; P 1.82; Y 2.42; M 1.92; I 2.28; S 1.66; C 2.85; H 2.15
L24: D 1.75; T 2.51; Q 3.08; C 3.12; G 2.06
T12: M 2.36; Q 1.6; G 2.05; L 2.13; H 1.55; P 1.55; D 1.37; F 2.88
C6: G 3.97; M 3.1; K 3.13
S13: C 2.82; M 2.61; V 2.1; G 2.52; R 2.49; N 2.12; F 2.46; L 2.4; D 2.56; H 2.82
P7: Y 2.09; N 2.19; K 2.6; F 1.8; R 2.88; W 1.96; A 2.2
L18: Y 1.96; N 2.41; C 2.24; S 2.42; Q 2.39; F 2.39
R19: D 1.54; S 2.58; K 1.82; T 1.75; M 1.29; E 1.59
V8: D 2.2; K 2.68; F 1.41; H 2.34; E 1.72; L 1.96; I 2.38; A 2.89; C 2.66; G 2.75; T 3.06; S 3.84
R10: K 2.14; C 3.16; V 2.04; I 2.6; M 2.88; Q 2.08; E 1.91; T 2.16; L 2.45; D 2.89
Q23: F 1.67; R 1.71; W 2.26; K 1.92; S 2.17
K11: V 1.63; A 2.45; N 3.36; G 1.75; H 3.77; I 1.21; S 2.25; Y 1.8
